B1: Proto-oncogene vav, residues 782 to 842; numbered along this chain, P15498 (parent)
chain: KYFGTAKARYDFCARDRSELSLKEGDIIKILNKKGQQGWWRGEIYGRVGWFPANYVEEDYS

± gives the uncertainty stated by the source.

In this data set the parent is B1. The data set can be described thus: abundance fitness (aPCA) (normalised: wild type 0, dead -1); higher = more abundant; growth selection in yeast, the domain comes from the species named. The following applies: Homo sapiens.
Turning to KYFGTAKARYDFCARDRSELSLKEDDIIKILNKKGQQGWWRGEIYGRVGWFPANYVEEDYS [G25D], the abundance fitness was -0.518 ± 0.17.
Under KYFGTAKARYDFCARDRSELSLKEGDIIKILNKKGQYGWWRGEIYGRVGWFPANYVEEDYS [Q37Y] stands 0.048 ± 0.11; under KYFGTAKARYDFCARDRSELSLKEGDIIKILNKKGQMGWWRGEIYGRVGWFPANYVEEDYS [Q37M], -0.105 ± 0.12; under KYFGTAKARYDFCARDRSELSLKEGYIIKILNKKGQQGWWRGEIYGRVGWFPANYVEEDYS [D26Y], -0.472 ± 0.18.
Under KYFGTAKARYDFCARDRSELSLKEGDIIKILNKKGQQGWWRGEIYGRVGWQPANYVEEDYS [F51Q] stands -0.759 ± 0.19; under KYFGTAKARYDFCARDRSELSLKEGDIIKILNKKGQQGWWRGEIYGRVGWRPANYVEEDYS [F51R], -0.78 ± 0.12; under KYFGTAKARYDFCARDRSELSLKEGDIIKILNKKGQQGWWRGEIYGRVGWFPANYVKEDYS [E57K], -0.313 ± 0.12.
Take KYFGTAKARYDFCARDRSELSLKEGDIIKILNKKGQQGWWRGEIYGRVGWFPANYVLEDYS [E57L]: the abundance fitness is -0.194 ± 0.065.
For KYFGTAKARYDFCARDRSELSLKEGDIIKILNKKGQQGWWRGEIYGRVGWFPANYVWEDYS [E57W], the abundance fitness was -0.478 ± 0.13.
Under KYFGTAKARYDFCARDRSELSLKEGDIIKILNKKGQQGWWRGEIYGRVGWFPANYVYEDYS [E57Y] stands -0.106 ± 0.11; under KYFGTAKARYDFCARDRSELSLKEGDIIKILNKKGQQGWWRGDIYGRVGWFPANYVEEDYS [E43D], -0.559 ± 0.17; under KYFGTAKARYDFCARDRSELSLKEGDIIKILNKKGQQGWWRGEIYGRVGWFPATYVEEDYS [N54T], -0.112 ± 0.094.
Under KYFGTAKARYDFCARDRSELSLKEGDIIKILNKKGQQGWWRGEIYGRVGWFPACYVEEDYS [N54C] stands -0.017 ± 0.12; under KYFGTAKARYDFQARDRSELSLKEGDIIKILNKKGQQGWWRGEIYGRVGWFPANYVEEDYS [C13Q], 0.098 ± 0.15; under KYFGTAKARYDFHARDRSELSLKEGDIIKILNKKGQQGWWRGEIYGRVGWFPANYVEEDYS [C13H], -0.131 ± 0.24.
For the variant KYFGTAKARYDFFARDRSELSLKEGDIIKILNKKGQQGWWRGEIYGRVGWFPANYVEEDYS [C13F], the abundance fitness was -0.006 ± 0.11.
As for KYFGTAKACYDFCARDRSELSLKEGDIIKILNKKGQQGWWRGEIYGRVGWFPANYVEEDYS [R9C], the figure is -0.356 ± 0.11; as for KYFGTAKANYDFCARDRSELSLKEGDIIKILNKKGQQGWWRGEIYGRVGWFPANYVEEDYS [R9N], -0.282 ± 0.15; as for KYKGTAKARYDFCARDRSELSLKEGDIIKILNKKGQQGWWRGEIYGRVGWFPANYVEEDYS [F3K], -0.103 ± 0.12.
Under KYFGTAKARYDFCARDRRELSLKEGDIIKILNKKGQQGWWRGEIYGRVGWFPANYVEEDYS [S18R] stands -0.156 ± 0.057; under KYFGTAKARYDFCARDRHELSLKEGDIIKILNKKGQQGWWRGEIYGRVGWFPANYVEEDYS [S18H], -0.096 ± 0.21; under KYFGTAKARYDFCARDRSELSHKEGDIIKILNKKGQQGWWRGEIYGRVGWFPANYVEEDYS [L22H], -0.456 ± 0.2.
Take KYFGTAKARYDFCARDRSELSKKEGDIIKILNKKGQQGWWRGEIYGRVGWFPANYVEEDYS [L22K]: the abundance fitness is -0.857 ± 0.26.
As for KYFGTAKARYDFCARDRSELSLKEGDCIKILNKKGQQGWWRGEIYGRVGWFPANYVEEDYS [I27C], the abundance fitness is -0.194 ± 0.085.
KYFGTAKARYDFCARDRSELSLKEGDIIKILNKKGQQGWWRGEIYGRVGWFPANYVEEDMS [Y60M]: the abundance fitness stood at 0.009 ± 0.1.
Under KYFGTAKARYDFCARDRSELSLKEGDIIKILNNKGQQGWWRGEIYGRVGWFPANYVEEDYS [K33N] stands -0.681 ± 0.2; under KYFGTAKARYDFCARDRSELSLKEGDIIKILNRKGQQGWWRGEIYGRVGWFPANYVEEDYS [K33R], -0.089 ± 0.051.
As to KYFGTAKARYDFCARDRSELSLKEGDIIKILNQKGQQGWWRGEIYGRVGWFPANYVEEDYS [K33Q], the abundance fitness was -0.478 ± 0.19.
As for KYFGTAKARYDFCAMDRSELSLKEGDIIKILNKKGQQGWWRGEIYGRVGWFPANYVEEDYS [R15M], the figure is -0.507 ± 0.14.
Under KYFGTAKARYDFCARDRSELSLKEGDIIKILNKKGQQGWWRGEIYGSVGWFPANYVEEDYS [R47S] stands -0.297 ± 0.053; under KYFGTAKARYDFCARDRSELSLKEGDIIKILNKKGQQGWWRGEIYGNVGWFPANYVEEDYS [R47N], -0.276 ± 0.14.
With KYFGTAKARYDFCARDRSELSLKEGDIIKILNKKSQQGWWRGEIYGRVGWFPANYVEEDYS [G35S], the abundance fitness is -0.104 ± 0.07.
Under KYFGTAKARYDFCARDRSELSLKEGDIIKILNKKGQQGWWRGEIYGRVGVFPANYVEEDYS [W50V] stands -0.452 ± 0.098; under KYFGTAKARYDFCARDRSELELKEGDIIKILNKKGQQGWWRGEIYGRVGWFPANYVEEDYS [S21E], -0.049 ± 0.12.
As for KYFGTAKARYDFCARDRSELTLKEGDIIKILNKKGQQGWWRGEIYGRVGWFPANYVEEDYS [S21T], the figure is -0.265 ± 0.12.
For the variant KYFGTAKARYDFCARDRSELSLKEGDIIKILNKKGQQGWWRGEIYGRVGWFPANYGEEDYS [V56G], the abundance fitness is -0.545 ± 0.13.
As for KYFGTAKARYDFCARDRSELSLKEGDIIKILLKKGQQGWWRGEIYGRVGWFPANYVEEDYS [N32L], the figure is -0.292 ± 0.066; as for KYFGTAKARYDFCARDRSELSLKEGDIIKILSKKGQQGWWRGEIYGRVGWFPANYVEEDYS [N32S], 0.082 ± 0.062; as for KYFGTAKARYDFCARDRSELSLKEGDIIKILDKKGQQGWWRGEIYGRVGWFPANYVEEDYS [N32D], 0.162 ± 0.098.
Regarding KYFGTAKARYMFCARDRSELSLKEGDIIKILNKKGQQGWWRGEIYGRVGWFPANYVEEDYS [D11M], the abundance fitness is -0.35 ± 0.091.
Turning to KYFGTAKARYAFCARDRSELSLKEGDIIKILNKKGQQGWWRGEIYGRVGWFPANYVEEDYS [D11A], the abundance fitness is -0.103 ± 0.08.
Consider KYFGTAKARYDFCARDRSELSLKEGDIIKILNKKGQQGWWRGEIYGRVGWFPANYVEEDYE [S61E], for which the abundance fitness is -0.235 ± 0.17.
With HYFGTAKARYDFCARDRSELSLKEGDIIKILNKKGQQGWWRGEIYGRVGWFPANYVEEDYS [K1H], the abundance fitness was -0.109 ± 0.45.
Under KYFGTAKARYDFCARDRSELSLKEGDIIKILNKKGQQGWWRGEIYGRVGWFPANWVEEDYS [Y55W] stands -0.198 ± 0.17.

For the origin of these results see the Human Domainome abundance scans (Beltran et al. 2025).
